The target in experiment [1] is T1, FcγRIIIa extracellular domain with C-terminal His tag (human, UniProt P08637 17-208).
T1 construct: extracellular domain; also called FcgRIIIa; 3a; not shown: His tag at the C terminus
Nature of the experiment: SPR (Biacore), antibody captured on antigen peptide chip, FcγR as analyte; relative binding amount. A general note: In SPR one partner is held on a chip, and binding of the other changes the refractive index at the surface.

The target of experiment [2] is T2, FcγRIIb extracellular domain with C-terminal His tag (human, UniProt P31994 43-217).
T2 construct: extracellular domain; also called FcgRIIb; 2b; not shown: His tag at the C terminus
T2 sequence (looked up): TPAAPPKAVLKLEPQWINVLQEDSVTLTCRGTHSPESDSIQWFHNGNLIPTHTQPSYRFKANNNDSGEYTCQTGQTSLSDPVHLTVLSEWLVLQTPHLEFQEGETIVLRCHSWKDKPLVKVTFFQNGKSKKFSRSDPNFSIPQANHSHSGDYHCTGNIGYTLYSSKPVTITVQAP
The experiment is described as above.

The target in experiment [3] is T1, FcγRIIIa extracellular domain with …. Description: SPR; He/Con_3a divided by He/Con_2b (binding to FcγRIIb is the reference). How it is done:
Analysis of interaction between objective antibody and the FcγR was carried out using Biacore T100 (GE Healthcare). HBS-EP+ (GE Healthcare) was used as the running buffer, and the measurement temperature was set to 25° C. Chips produced by immobilizing the antigen peptide by the amine coupling method to a Series S Sencor Chip CM5 (GE Healthcare), or alternatively, chips produced by allowing preliminarily biotinylated antigen peptides to interact with and immobilize onto a Series S Sensor Chip SA (certified) (GE Healthcare) were used. Antibodies of interest were captured onto an antigen peptide-immobilized chip, and allowed to interact to each FcγR diluted with running buffer. To regenerate and repeatedly use the chip, the antibodies captured on the chip were washed off by reacting 10 mM glycine-HCl, pH 1.5.
The FcγR-binding activity of each antibody was assessed primarily using as an indicator the FcγR-binding activity and dissociation constant for FcγR.

T1 sequence (P08637 17-208): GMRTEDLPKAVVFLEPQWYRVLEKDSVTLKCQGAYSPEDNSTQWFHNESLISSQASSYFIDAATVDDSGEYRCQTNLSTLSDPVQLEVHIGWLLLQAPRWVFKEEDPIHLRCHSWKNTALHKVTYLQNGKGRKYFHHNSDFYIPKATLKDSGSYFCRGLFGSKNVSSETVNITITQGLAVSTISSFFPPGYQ

B1: GpH7-A5/GpH7-B3 variant S239_04F/GpL16-k0 (antibody, human IgG1, kappa)
heavy 1: not shown
heavy 2: not shown
light: DIVMTQSPLSLPVTPGEPASISCQASESLVHSNRNTYLHWYLQKPGQSPQLLIYKVSNRFSGVPDRFSGSGSGTDFTLKISRVEAEDVGVYYCSQNTHVPPTFGQGTKVEIERTVAAPSVFIFPPSDEQLKSGTASVVCLLNNFYPREAKVQWKVDNALQSGNSQESVTEQDSKDSTYSLSSTLTLSKADYEKHKVYACEVTHQGLSSPVTKSFNRGEC
notes: Heterodimerized anti-glypican-3 IgG1; the substitution stands in the GpH7-B3 chain only; also called He Ab
Consider B1, for which, in experiment [1], the He/Con_3a was 25.3 % of GpH7-A5/GpH7-B3/GpL16-k0 (=100). Also, the He/Con_2b in experiment [2] is 44.1 % of GpH7-A5/GpH7-B3/GpL16-k0 (=100). For the same molecule, the “He_3a/2b (IIIa/IIb)” value in experiment [3] stood at 0.57 ratio.

B2: GpH7-A5/GpH7-B3 variant S239_11K/GpL16-k0 (antibody, human IgG1, kappa)
heavy 1: not shown
heavy 2: not shown
light: DIVMTQSPLSLPVTPGEPASISCQASESLVHSNRNTYLHWYLQKPGQSPQLLIYKVSNRFSGVPDRFSGSGSGTDFTLKISRVEAEDVGVYYCSQNTHVPPTFGQGTKVEIERTVAAPSVFIFPPSDEQLKSGTASVVCLLNNFYPREAKVQWKVDNALQSGNSQESVTEQDSKDSTYSLSSTLTLSKADYEKHKVYACEVTHQGLSSPVTKSFNRGEC
notes: as for B1
As to B2, the He/Con_3a in experiment [1] was 11.9 % of GpH7-A5/GpH7-B3/GpL16-k0 (=100). Moreover, the He/Con_2b in experiment [2] is 24.7 % of GpH7-A5/GpH7-B3/GpL16-k0 (=100). Moreover, the “He_3a/2b (IIIa/IIb)” value in experiment [3] turned out to be 0.48 ratio.

B3: GpH7-A5/GpH7-B3 variant S239_06M/GpL16-k0 (antibody, human IgG1, kappa)
heavy 1: not shown
heavy 2: not shown
light: DIVMTQSPLSLPVTPGEPASISCQASESLVHSNRNTYLHWYLQKPGQSPQLLIYKVSNRFSGVPDRFSGSGSGTDFTLKISRVEAEDVGVYYCSQNTHVPPTFGQGTKVEIERTVAAPSVFIFPPSDEQLKSGTASVVCLLNNFYPREAKVQWKVDNALQSGNSQESVTEQDSKDSTYSLSSTLTLSKADYEKHKVYACEVTHQGLSSPVTKSFNRGEC
notes: as for B1
As to B3, the He/Con_3a in experiment [1] was 78.2 % of GpH7-A5/GpH7-B3/GpL16-k0 (=100). In addition, the He/Con_2b in experiment [2] was 101 % of GpH7-A5/GpH7-B3/GpL16-k0 (=100). In addition, in experiment [3], the “He_3a/2b (IIIa/IIb)” value turned out to be 0.78 ratio.

B4: GpH7-A5/GpH7-B3 variant S239_08L/GpL16-k0 (antibody, human IgG1, kappa)
heavy 1: not shown
heavy 2: not shown
light: DIVMTQSPLSLPVTPGEPASISCQASESLVHSNRNTYLHWYLQKPGQSPQLLIYKVSNRFSGVPDRFSGSGSGTDFTLKISRVEAEDVGVYYCSQNTHVPPTFGQGTKVEIERTVAAPSVFIFPPSDEQLKSGTASVVCLLNNFYPREAKVQWKVDNALQSGNSQESVTEQDSKDSTYSLSSTLTLSKADYEKHKVYACEVTHQGLSSPVTKSFNRGEC
notes: as for B1
For B4, the He/Con_3a in experiment [1] is 95.3 % of GpH7-A5/GpH7-B3/GpL16-k0 (=100). Moreover, in experiment [2], the He/Con_2b was 140 % of GpH7-A5/GpH7-B3/GpL16-k0 (=100). The “He_3a/2b (IIIa/IIb)” value in experiment [3] amounted to 0.68 ratio.

B5: GpH7-A5/GpH7-B3 variant S239_15Y/GpL16-k0 (antibody, human IgG1, kappa)
heavy 1: not shown
heavy 2: not shown
light: DIVMTQSPLSLPVTPGEPASISCQASESLVHSNRNTYLHWYLQKPGQSPQLLIYKVSNRFSGVPDRFSGSGSGTDFTLKISRVEAEDVGVYYCSQNTHVPPTFGQGTKVEIERTVAAPSVFIFPPSDEQLKSGTASVVCLLNNFYPREAKVQWKVDNALQSGNSQESVTEQDSKDSTYSLSSTLTLSKADYEKHKVYACEVTHQGLSSPVTKSFNRGEC
notes: as for B1
Consider B5, for which the He/Con_3a in experiment [1] is 25.6 % of GpH7-A5/GpH7-B3/GpL16-k0 (=100). Moreover, in experiment [2], the He/Con_2b is 34.9 % of GpH7-A5/GpH7-B3/GpL16-k0 (=100). In addition, the “He_3a/2b (IIIa/IIb)” value in experiment [3] stood at 0.73 ratio.

B6: GpH7-A5/GpH7-B3 variant S239_16H/GpL16-k0 (antibody, human IgG1, kappa)
heavy 1: not shown
heavy 2: not shown
light: DIVMTQSPLSLPVTPGEPASISCQASESLVHSNRNTYLHWYLQKPGQSPQLLIYKVSNRFSGVPDRFSGSGSGTDFTLKISRVEAEDVGVYYCSQNTHVPPTFGQGTKVEIERTVAAPSVFIFPPSDEQLKSGTASVVCLLNNFYPREAKVQWKVDNALQSGNSQESVTEQDSKDSTYSLSSTLTLSKADYEKHKVYACEVTHQGLSSPVTKSFNRGEC
notes: as for B1
With B6, the He/Con_3a in experiment [1] was 29.2 % of GpH7-A5/GpH7-B3/GpL16-k0 (=100). The He/Con_2b in experiment [2] is 49.4 % of GpH7-A5/GpH7-B3/GpL16-k0 (=100). The “He_3a/2b (IIIa/IIb)” value in experiment [3] is 0.59 ratio.

B7: GpH7-A5/GpH7-B3 variant S239_19Q/GpL16-k0 (antibody, human IgG1, kappa)
heavy 1: not shown
heavy 2: not shown
light: DIVMTQSPLSLPVTPGEPASISCQASESLVHSNRNTYLHWYLQKPGQSPQLLIYKVSNRFSGVPDRFSGSGSGTDFTLKISRVEAEDVGVYYCSQNTHVPPTFGQGTKVEIERTVAAPSVFIFPPSDEQLKSGTASVVCLLNNFYPREAKVQWKVDNALQSGNSQESVTEQDSKDSTYSLSSTLTLSKADYEKHKVYACEVTHQGLSSPVTKSFNRGEC
notes: as for B1
B7: the He/Con_3a in experiment [1] was 56.9 % of GpH7-A5/GpH7-B3/GpL16-k0 (=100). The He/Con_2b in experiment [2] is 86.1 % of GpH7-A5/GpH7-B3/GpL16-k0 (=100). In addition, the “He_3a/2b (IIIa/IIb)” value in experiment [3] is 0.66 ratio.

B8: GpH7-A5/GpH7-B3 variant S239_12R/GpL16-k0 (antibody, human IgG1, kappa)
heavy 1: not shown
heavy 2: not shown
light: DIVMTQSPLSLPVTPGEPASISCQASESLVHSNRNTYLHWYLQKPGQSPQLLIYKVSNRFSGVPDRFSGSGSGTDFTLKISRVEAEDVGVYYCSQNTHVPPTFGQGTKVEIERTVAAPSVFIFPPSDEQLKSGTASVVCLLNNFYPREAKVQWKVDNALQSGNSQESVTEQDSKDSTYSLSSTLTLSKADYEKHKVYACEVTHQGLSSPVTKSFNRGEC
notes: as for B1
In the case of B8, the He/Con_3a in experiment [1] was 17 % of GpH7-A5/GpH7-B3/GpL16-k0 (=100). In addition, in experiment [2], the He/Con_2b was 39.1 % of GpH7-A5/GpH7-B3/GpL16-k0 (=100). Also, in experiment [3], the “He_3a/2b (IIIa/IIb)” value is 0.44 ratio.

B9: GpH7-A5/GpH7-B3 variant S239_07I/GpL16-k0 (antibody, human IgG1, kappa)
heavy 1: not shown
heavy 2: not shown
light: DIVMTQSPLSLPVTPGEPASISCQASESLVHSNRNTYLHWYLQKPGQSPQLLIYKVSNRFSGVPDRFSGSGSGTDFTLKISRVEAEDVGVYYCSQNTHVPPTFGQGTKVEIERTVAAPSVFIFPPSDEQLKSGTASVVCLLNNFYPREAKVQWKVDNALQSGNSQESVTEQDSKDSTYSLSSTLTLSKADYEKHKVYACEVTHQGLSSPVTKSFNRGEC
notes: as for B1
Regarding B9, the He/Con_3a in experiment [1] was 79.3 % of GpH7-A5/GpH7-B3/GpL16-k0 (=100). Further, in experiment [2], the He/Con_2b is 107 % of GpH7-A5/GpH7-B3/GpL16-k0 (=100). Besides, the “He_3a/2b (IIIa/IIb)” value in experiment [3] was 0.74 ratio.

B10: GpH7-A5/GpH7-B3 variant S239_05P/GpL16-k0 (antibody, human IgG1, kappa)
heavy 1: not shown
heavy 2: not shown
light: DIVMTQSPLSLPVTPGEPASISCQASESLVHSNRNTYLHWYLQKPGQSPQLLIYKVSNRFSGVPDRFSGSGSGTDFTLKISRVEAEDVGVYYCSQNTHVPPTFGQGTKVEIERTVAAPSVFIFPPSDEQLKSGTASVVCLLNNFYPREAKVQWKVDNALQSGNSQESVTEQDSKDSTYSLSSTLTLSKADYEKHKVYACEVTHQGLSSPVTKSFNRGEC
notes: as for B1
For the molecule B10, the He/Con_3a in experiment [1] is 14.9 % of GpH7-A5/GpH7-B3/GpL16-k0 (=100). Also, in experiment [2], the He/Con_2b is 102 % of GpH7-A5/GpH7-B3/GpL16-k0 (=100). Further, the “He_3a/2b (IIIa/IIb)” value in experiment [3] was 0.15 ratio.

The values above are taken from patent US20180155451A1 (published 2018).
